Reference: publication PMC3039075 (Nitric oxide : biology and chemistry / official journal of …, 2010)

Biological target: the molecule itself
Test: non-reducing SDS-PAGE and Western blot

B1: matrix metalloproteinase-9 (MMP-9) (enzyme)
chain: not shown
- stoichiometry N: 2
